*1 amine or outer side, *2 acyl side, *3 side chain or, on linkers, in order; H or OH if unused. Where no end group is shown, it is not given here. Side-chain parts run from the residue outwards. [ ]: non-standard residue; d: D form. The star is where a group is joined. C18 diacid = O=C(O)CCCCCCCCCCCCCCCCC(=O)*; γGlu = O=C(O)[C@H](CCC(=O)[*:2])N[*:1]; Nle = CCCC[C@H](N)C(=O)O; AEEA = NCCOCCOCC(=O)O; Aib = CC(C)(N)C(=O)O

Eleven molecules from patent US20190367578A1 (Novo Nordisk, published 2019) can be followed below.

T1: human GIP receptor (human) (UniProt P48546)
T1 sequence (looked up): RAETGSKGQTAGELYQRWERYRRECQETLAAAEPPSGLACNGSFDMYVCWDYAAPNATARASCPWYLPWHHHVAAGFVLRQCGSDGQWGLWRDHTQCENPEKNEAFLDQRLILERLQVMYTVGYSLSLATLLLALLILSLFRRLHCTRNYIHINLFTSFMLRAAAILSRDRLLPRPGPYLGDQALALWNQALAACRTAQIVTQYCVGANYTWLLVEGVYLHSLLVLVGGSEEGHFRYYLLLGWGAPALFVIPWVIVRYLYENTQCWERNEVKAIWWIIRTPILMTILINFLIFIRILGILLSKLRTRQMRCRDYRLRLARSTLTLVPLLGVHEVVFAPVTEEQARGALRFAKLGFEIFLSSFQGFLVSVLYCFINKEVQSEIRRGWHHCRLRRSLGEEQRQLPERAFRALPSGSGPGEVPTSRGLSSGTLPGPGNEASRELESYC

The target of one assay is human glucagon receptor (human, UniProt P47871 26-477). The assay can be described thus: cell-based or functional assay.
human glucagon receptor, sequence (P47871 26-477): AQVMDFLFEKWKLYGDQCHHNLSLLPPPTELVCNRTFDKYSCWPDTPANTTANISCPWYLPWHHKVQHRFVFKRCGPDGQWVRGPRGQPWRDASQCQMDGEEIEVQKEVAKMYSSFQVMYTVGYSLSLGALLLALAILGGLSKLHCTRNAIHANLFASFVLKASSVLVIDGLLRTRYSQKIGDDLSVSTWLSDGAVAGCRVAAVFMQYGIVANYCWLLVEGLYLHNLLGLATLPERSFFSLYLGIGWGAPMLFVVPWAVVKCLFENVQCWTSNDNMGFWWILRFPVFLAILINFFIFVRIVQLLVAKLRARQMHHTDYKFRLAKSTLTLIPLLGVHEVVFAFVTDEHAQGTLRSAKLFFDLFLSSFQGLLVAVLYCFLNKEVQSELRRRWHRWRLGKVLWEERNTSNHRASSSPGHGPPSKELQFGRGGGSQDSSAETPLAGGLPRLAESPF
Regarding H-YAEGTFISDYSIAMDKIHQQDFVNWLLAQKGKKNDWKHNITQ-OH [hGIP(1-42)], the “EC50 (pM), hGcg-R CRE Luc, 0.2% HSA” value was above 100000 pM.

For a further assay, the target named is T1, human GIP receptor (human). The assay can be described thus: cell-based or functional assay.
Molecule Y[Aib]EGTFISDYSIA[Nle]DKIHQQDFVK([γGlu-γGlu-γGlu-C18 diacid])WLLAQKGKEDDWKHNITQ returned an EC50 (pM), hGIP-R CRE Luc, 0.2% HSA of 5.9 pM.
Molecule Y[Aib]EGTFISDYSIA[Nle]DKIRQQDFVK([γGlu-γGlu-γGlu-C18 diacid])WLLAQKGKENDWKHNITQ displayed an EC50 (pM), hGIP-R CRE Luc, 0.2% HSA of 20.1 pM.
Still for that read-out and setting: the same measure for Y[Aib]EGTFISDYSIA[Nle]DKIHQQDFVK([γGlu-γGlu-γGlu-C18 diacid])WLLAQKGKEEDWKHNITQ: 9 pM.
Still for that read-out and setting: the same measure for Y[Aib]EGTFISDYSIA[Nle]DKIHQQDFVK([AEEA-AEEA-γGlu-C18 diacid])WLLAQKGKEDDWKHNITQ: 5.97 pM; for Y[Aib]EGTFISDYSIA[Nle]DKIHQQDFVK([AEEA-AEEA-γGlu-C18 diacid])WLLAQKGKEEDWKHNITQ: 5.45 pM.
Y[Aib]EGTFISDYSIA[Nle]DKIRQQDFVK([γGlu-γGlu-γGlu-C18 diacid])WLLAQKGKEEDWKHNITQ showed an EC50 (pM), hGIP-R CRE Luc, 0.2% HSA of 4.47 pM.
The same measure, in the same setting: under Y[Aib]EGTFISDYSIA[Nle]DKIHQQDFVK([γGlu-γGlu-γGlu-C18 diacid])WLLAQKG stands 49.9 pM; under Y[Aib]EGTFISDYSIA[Nle]DKIRQQDFVK([AEEA-AEEA-γGlu-C18 diacid])WLLAQKGKEEDWKHNITQ, 4.12 pM.
On the same count and under the same terms, the same measure for Y[Aib]EGTFISDYSIA[Nle]DKIHQQDFVK([γGlu-γGlu-γGlu-C18 diacid])WLLAQKGKENDWKHNITQ: 21.3 pM; for Y[Aib]EGTFISDYSIALDKIHQQDFVK([AEEA-AEEA-γGlu-C18 diacid])WLLAQKGKKNDWKHNITQ: 56 pM.

The target of a further assay is human GLP-1 receptor (human) (UniProt P43220). The assay can be described thus: cell-based or functional assay.
human GLP-1 receptor (human), sequence (P43220 24-463): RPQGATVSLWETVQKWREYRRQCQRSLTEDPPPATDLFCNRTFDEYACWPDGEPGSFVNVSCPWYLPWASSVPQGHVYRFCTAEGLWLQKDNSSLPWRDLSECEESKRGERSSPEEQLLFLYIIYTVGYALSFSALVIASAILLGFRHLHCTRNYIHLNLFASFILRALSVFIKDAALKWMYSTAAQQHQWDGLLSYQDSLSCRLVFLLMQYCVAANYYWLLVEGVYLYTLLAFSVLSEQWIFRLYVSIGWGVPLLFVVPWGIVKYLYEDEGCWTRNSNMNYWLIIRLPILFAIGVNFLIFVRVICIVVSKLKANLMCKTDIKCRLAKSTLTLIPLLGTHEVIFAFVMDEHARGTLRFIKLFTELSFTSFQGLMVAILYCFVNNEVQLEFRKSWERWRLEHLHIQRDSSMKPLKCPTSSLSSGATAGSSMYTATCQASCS
As to Y[Aib]EGTFISDYSIA[Nle]DKIHQQDFVK([γGlu-γGlu-γGlu-C18 diacid])WLLAQKGKEDDWKHNITQ, the EC50 (pM), hGLP-1-R CRE Luc, 0.2% HSA was above 100000 pM.
Take Y[Aib]EGTFISDYSIA[Nle]DKIRQQDFVK([γGlu-γGlu-γGlu-C18 diacid])WLLAQKGKENDWKHNITQ: the EC50 (pM), hGLP-1-R CRE Luc, 1% HSA (footnote *) was above 100000 pM.
Y[Aib]EGTFISDYSIA[Nle]DKIHQQDFVK([γGlu-γGlu-γGlu-C18 diacid])WLLAQKGKEEDWKHNITQ came in with an EC50 (pM), hGLP-1-R CRE Luc, 0.2% HSA above 100000 pM.
Same read-out and setting: under Y[Aib]EGTFISDYSIA[Nle]DKIHQQDFVK([AEEA-AEEA-γGlu-C18 diacid])WLLAQKGKEDDWKHNITQ stands above 100000 pM; under Y[Aib]EGTFISDYSIA[Nle]DKIHQQDFVK([AEEA-AEEA-γGlu-C18 diacid])WLLAQKGKEEDWKHNITQ, above 100000 pM.
On the same count and under the same terms, under Y[Aib]EGTFISDYSIA[Nle]DKIRQQDFVK([γGlu-γGlu-γGlu-C18 diacid])WLLAQKGKEEDWKHNITQ stands above 100000 pM.
Molecule Y[Aib]EGTFISDYSIA[Nle]DKIHQQDFVK([γGlu-γGlu-γGlu-C18 diacid])WLLAQKG returned an EC50 (pM), hGLP-1-R CRE Luc, 1% HSA (footnote *) above 100000 pM.
On to Y[Aib]EGTFISDYSIA[Nle]DKIRQQDFVK([AEEA-AEEA-γGlu-C18 diacid])WLLAQKGKEEDWKHNITQ, for which the EC50 (pM), hGLP-1-R CRE Luc, 0.2% HSA is above 100000 pM.
On to Y[Aib]EGTFISDYSIA[Nle]DKIHQQDFVK([γGlu-γGlu-γGlu-C18 diacid])WLLAQKGKENDWKHNITQ, for which the EC50 (pM), hGLP-1-R CRE Luc, 1% HSA (footnote *) is above 100000 pM.
The same measure, in the same setting: the same measure for Y[Aib]EGTFISDYSIALDKIHQQDFVK([AEEA-AEEA-γGlu-C18 diacid])WLLAQKGKKNDWKHNITQ: above 100000 pM.

The next assay deals with human glucagon receptor (human) (UniProt P47871). As to the kind of experiment: cell-based or functional assay.
human glucagon receptor (human), sequence (P47871 26-477): as the sequence (P47871 26-477) above
The molecule Y[Aib]EGTFISDYSIA[Nle]DKIHQQDFVK([γGlu-γGlu-γGlu-C18 diacid])WLLAQKGKEDDWKHNITQ showed an EC50 (pM), hGcg-R CRE Luc, 0.2% HSA above 100000 pM.
The molecule Y[Aib]EGTFISDYSIA[Nle]DKIRQQDFVK([γGlu-γGlu-γGlu-C18 diacid])WLLAQKGKENDWKHNITQ showed an EC50 (pM), hGcg-R CRE Luc, 1% HSA (footnote *) above 100000 pM.
Take Y[Aib]EGTFISDYSIA[Nle]DKIHQQDFVK([γGlu-γGlu-γGlu-C18 diacid])WLLAQKGKEEDWKHNITQ: the EC50 (pM), hGcg-R CRE Luc, 0.2% HSA is above 100000 pM.
On the same count and under the same terms, under Y[Aib]EGTFISDYSIA[Nle]DKIHQQDFVK([AEEA-AEEA-γGlu-C18 diacid])WLLAQKGKEDDWKHNITQ stands above 100000 pM; under Y[Aib]EGTFISDYSIA[Nle]DKIHQQDFVK([AEEA-AEEA-γGlu-C18 diacid])WLLAQKGKEEDWKHNITQ, above 100000 pM; under Y[Aib]EGTFISDYSIA[Nle]DKIRQQDFVK([γGlu-γGlu-γGlu-C18 diacid])WLLAQKGKEEDWKHNITQ, above 100000 pM.
In the case of Y[Aib]EGTFISDYSIA[Nle]DKIHQQDFVK([γGlu-γGlu-γGlu-C18 diacid])WLLAQKG, the EC50 (pM), hGcg-R CRE Luc, 1% HSA (footnote *) is above 100000 pM.
Take Y[Aib]EGTFISDYSIA[Nle]DKIRQQDFVK([AEEA-AEEA-γGlu-C18 diacid])WLLAQKGKEEDWKHNITQ: the EC50 (pM), hGcg-R CRE Luc, 0.2% HSA was above 100000 pM.
Take Y[Aib]EGTFISDYSIA[Nle]DKIHQQDFVK([γGlu-γGlu-γGlu-C18 diacid])WLLAQKGKENDWKHNITQ: the EC50 (pM), hGcg-R CRE Luc, 1% HSA (footnote *) was above 100000 pM.
Molecule Y[Aib]EGTFISDYSIALDKIHQQDFVK([AEEA-AEEA-γGlu-C18 diacid])WLLAQKGKKNDWKHNITQ showed an EC50 (pM), hGcg-R CRE Luc, 1% HSA (footnote *) above 100000 pM.
